Experimental data from IntAct's records for PubMed 23856421.

B1: Dolichol-phosphate mannosyltransferase subunit 1 (Homo sapiens), O60762 (parent)
chain: MASLEVSRSPRRSRRELEVRSPRQNKYSVLLPTYNERENLPLIVWLLVKSFSESGINYEIIIIDDGSPDGTRDVAEQLEKIYGSDRILLRPREKKLGLGTAYIHGMKHATGNYIIIMDADLSHHPKFIPEFIRKQKEGNFDIVSGTRYKGNGGVYGWDLKRKIISRGANFLTQILLRPGASDLTGSFRLYRKEVLEKLIEKCVSKGYVFQMEMIVRARQLNYTIGEVPISFVDRVYGESKLGGNEIVSFLKGLLTLFATT
partner: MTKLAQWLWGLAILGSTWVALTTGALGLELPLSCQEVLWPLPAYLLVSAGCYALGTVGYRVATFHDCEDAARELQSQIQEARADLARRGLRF

Variants of: B1
Conditions: with dpm3_human DPM3, Q9P2X0

Row | effect of a mutation on the interaction | Variant
1 | disrupting interaction | G152V
